# According to paper PMC8217507 (Scientific Reports, 2021):
# B1: HuMAb 1E5 (antibody, V domains shown)
# VH: QVQLVESGGGVVQPGKSLRVSCAASGFIFSSYGMHWVRQAPGKGLEWVAVISYDGRYKFYADSVKGRFTISRDDSRSTLYLQMNSLRSDDTAVYYCARGRPYIGGDYEYDYFYGMDVWGQGTTVIVSS
# VL: IVMTQTPLSSPVTLGQPASISCRSSQSLVHSDGNTYLNWLQQRPGQPPRLLIYNISNRFSGVPDRFSGSGAGTDFTLKINRVEAEDVGVYYCMQATHFPYSFGQGTKLEIK
# B2: HuMAb 3E1 (antibody, V domains shown)
# VH: EVQLLESGGGLVQPGGSLRLSCAASGFTFSRFAMTWVRQAPGKGLEWVSAISGSGGSTFYADSVKGRFTISRDNSKNTLYLQMNSLRAEDTAVYYCVSLGDAWLLYWTPWGQGSLVTVSS
# VL: DVVMTQSPLSLPVTLGQPASISCRSSQSLVHGDGNTYLNWFQQRPGQSPRRLIYNVSNRDPGVPDRFSGSGSGTDFTLKISWVEAEDVGVYYCMQATHLPPTFGGGTKVEI
# B3: HuMAb 3G9 (antibody, V domains shown)
# VH: EVQLLDSGGGLVQPGGSLRLSCAASGFTFNDYAMTWVRQAPGKGLEWVSTISGSGDGTYYQESLKGRFTISRDNSKNTLYLLMSSLRVDDTAVYYCAKLFGVGDSDGYWGQGTLVTVSS
# VL: QAVVTQEPSLTVSPGGTVTLTCGSSTGAVTSDHYFYWFQQKPGQAPRTLIYQTTNKHPWTPARFSGSLLGGKAALTLSGAQPEDEAEYYCLLSYGGGRPVFGGGTKLTVL
# notes: also called 3G9-original; 3G9-Original
# B4: HuMAb 1C3 (antibody, V domains shown)
# VH: EVQLVESGGGLVQPGGSLRLSCAASGFTFSDHYIDWVRQAPGKGLEWVGRTSNRANSYTSEYAASVKGRFTISRDDSKNSVYLQMNSLKTEDTAVYFCARDSGWYDFWGQGTLVTVSS
# VL: ALTQPASVSGSPGQSITISCTGPSRDLGANNYVSWYQQHPGKAPKLLIYDINNRPSGVPDRFSGSRSGNTASLTISGLQADDEADYYCSSYTRSRTRVFGGGTKLTVL
# Columns and labels:
# [1] = target: T1, DENV2 (strain 16681) prM-E, wild type (Dengue virus type 2, strain 16681, UniProt P29990); assay: flow cytometry on cells
# T1 construct: also called wild-type prM-E; DENV-2 prM-E; source: HEK-293T, transfected, in fixed cells
# [2] = target: E protein of DENV-2 Indonesian isolate (cosmopolitan genotype, Surabaya) (Dengue virus type 2, cosmopolitan …, UniProt P14340, strain); assay: cell-based or functional assay
Binder,binding result [1],"NT50, neutralization of DENV-2 (Indonesian isolate), Vero cells [2] [µg/mL]"
B1,binds,0.69
B2,binds,0.05
B3,binds,0.02
B4,binds,0.12
